Here are results for one molecule from patent publication US20100330617A1 (Sanofi, published 2010).

In the assay the target is T1, bovine serum albumin (bovine, UniProt P02769 25-607).
T1 construct: Control resin with an equimolar amount of BSA coupled; also called BSA; BSA-agarose resin
Kind of assay: affinity chromatography of murine liver extract on BSA control resin, SDS-PAGE and silver staining.

T1 sequence (P02769 25-607 limits assumed): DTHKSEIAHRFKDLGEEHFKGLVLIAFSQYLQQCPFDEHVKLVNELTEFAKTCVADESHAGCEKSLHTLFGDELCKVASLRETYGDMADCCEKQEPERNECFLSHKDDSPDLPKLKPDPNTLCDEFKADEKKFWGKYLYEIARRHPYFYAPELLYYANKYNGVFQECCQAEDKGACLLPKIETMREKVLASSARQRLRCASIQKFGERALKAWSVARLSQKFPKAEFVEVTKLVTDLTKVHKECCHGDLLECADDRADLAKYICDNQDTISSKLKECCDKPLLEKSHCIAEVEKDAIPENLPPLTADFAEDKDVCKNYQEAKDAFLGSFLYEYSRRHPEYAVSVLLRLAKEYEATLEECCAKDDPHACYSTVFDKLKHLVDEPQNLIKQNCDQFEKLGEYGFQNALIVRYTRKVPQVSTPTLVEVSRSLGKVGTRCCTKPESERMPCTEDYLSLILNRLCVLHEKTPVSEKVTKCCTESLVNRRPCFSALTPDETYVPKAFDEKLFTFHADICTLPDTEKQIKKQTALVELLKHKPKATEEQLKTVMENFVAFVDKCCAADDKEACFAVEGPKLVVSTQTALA

B1: endogenous LIMP-2 from murine liver extract (75 kD GC binding protein) (receptor)
chain: MGRCCFYTAGTLSLLLLVTSVTLLVARVFQKAVDQTIEKNMVLQNGTKVFNSWEKPPLPVYIQFYFFNVTNPEEILQGEIPLLEEVGPYTYRELRNKANIQFGENGTTISAVTNKAYVFERNQSVGDPNVDLIRTINIPLLTVVDLAQLTLLRELIEAMLKAYQQKLFVIHTVHELLWGYKDEILSLVHIFKPDVSPNFGLFYERNGTNDGEYVFLTGEDNYLNFSKIVEWNGKTSLDWWTTDTCNMINGTDGDSFHPLISKDEVLYLFPSDLCRSVHITFSSFENVEGLPAFRYKVPAEILANTSENAGFCIPEGNCMDSGVLNISICKNGAPIIMSFPHFYQADEKFVSAIKGMHPNKEEHESFVDINPLTGIILRGAKRFQINTYVRKLDDFVETGDIRTMVFPVMYLNESVLIDKETANQLKSVINTTLVVTNIPYIIMALGVFFGLVFTWLACRGQGSMDEGTADERAPLIRT
notes: Identified by mass spectrometry as LIMP-2; N-glycosylated (75 kD, 54 kD after PNGase-F); also called 75 kD polypeptide
As for B1, the binding result was “no binding”.
